The results in this text go back to patent US20200199214A1 (Hoffmann-La Roche, published 2020).

The target in one assay is T1, Human VEGF121-His (human, UniProt P15692-9 27-147).
T1 construct: not shown: His tag
T1 sequence (looked up): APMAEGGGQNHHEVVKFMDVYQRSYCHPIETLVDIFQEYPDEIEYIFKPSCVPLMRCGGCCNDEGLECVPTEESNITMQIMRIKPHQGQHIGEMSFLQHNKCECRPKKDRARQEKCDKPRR
The experiment in a line: SPR, VEGF121-His captured via anti-His antibody, Fab injected, single cycle kinetics, 1:1 Langmuir fit. The procedure:
An anti-His capturing antibody (GE Healthcare 28995056) was immobilized to a Series S Sensor Chip C1 (GE Healthcare 29104990) using standard amine coupling chemistry resulting in a surface density of approximately 500 resonance units (RU). As running and dilution buffer, HBS-P+(10 mM HEPES, 150 mM NaCl pH 7.4, 0.05% Surfactant P20) was used. Human VEGF121-His was captured to the surface with resulting ligand densities of approximately 10 and 20 RU, respectively. A dilution series of the bispecific anti-VEGF/anti-IL-1beta Fab fragment (1.2-100 nM, 1:3 dilution) was successively injected for 90 s each, dissociation was monitored for 3600 s at a flow rate of 30 μl/min (single cycle kinetics). The surface was regenerated by injecting 10 mM Glycine pH 1.5 for 60 s. Bulk refractive index differences were corrected by subtracting blank injections and by subtracting the response obtained from the control flow cell without captured human VEGF121. Curve fitting was performed using the 1:1 Langmuir binding model within the Biacore evaluation software. To provide more robust fitting, the Multiple Rmax option was chosen for global fitting using both ligand densities.
Binding kinetics to VEGF and IL-1beta for the candidate antibodies were assessed as described in Example 3 using the indicated bispecific anti-VEGF/anti-IL-1beta Fab fragments (amino acid sequence as illustrated in Table 3). For comparison, antigen binding kinetics of prior art anti-VEGF/anti-IL-1beta antibody 0032, a full length IgG antibody, as disclosed in WO2016/075034 are depicted.

In a further assay the target is T2, human VEGF121 (human, UniProt P15692-9 27-147).
T2 construct: No tag is stated for these preparations; Kept apart from VEGF121-His; also called HuVEGF121
T2 sequence (looked up): T1 sequence (looked up)
The assay can be described thus: competition ELISA: Fab preincubated with VEGF121, free VEGF121 bound to coated rhVEGFR-1-Fc detected; sheet title 'Competition ELISA VEGFR1-Fc, 8 pM VEGF121'. As for the experimental part:
(§1) 96-well-Plates (Maxisorp Nunc-Immoplates) were coated with 50 μL/well rhVEGFR-1-Fc (R&D #321-FL-050) at a final concentration of 1 μg/ml in 200 mM NaHC0₃, pH 9.4 for 1 hour at room temperature.
(§2) Meanwhile, antibody Fab fragments of different concentrations were preincubated with VEGF for form an antibody Fab-VEGF premix as follows: A dilution series of antibody Fab fragment was prepared by adding 280 μl of a solution of antibody Fab fragments (409.6 nM antibody in PBST-1% BSA) into the wells of the first column of a round bottom 96-well PS plate. The individual wells of columns 2-12 of the same plate were filled with 140 μl PBST-1% BSA. Subsequently, 1:2 dilutions were performed by transferring 140 μl of the antibody solution into the next column, thorough mixing and proceed with transferring 140 μl of this diluted antibody solution to the next column. This is repeated until column 11. Excess of 140 μl were discarded so that all wells comprise 140 μl. Column 12 served as the control (blank). […] 50 μl of the dilution series of the respective antibody Fab fragment were added to the VEGF121, or VEGF165, respectively; mixed thoroughly and incubated for 1.5 hours at room temperature.
(§3) The rhVEGFR-1-Fc coated plates were washed two times with PBST and blocked for 45 min with 200 μl of 2% MPBST. After washing off the MPBST solution twice with PBST, 50 μl of the antibody Fab-VEGF premix were added to the plate and incubated for 1.5 hours at room temperature. Subsequently, the plates were washed twice with PBST. Then, 50 μl of a solution comprising biotinylated anti-VEGF antibody (R&D, BAF293; 1:2000 dilution in PBST) and SA-HRP (KPL, 14-30-00; 1:2000 dilution in PBST) was added and incubated for 30 min at room temperature. After 6× washing with PBST, 50 μl of TMB substrate solution (two-component HRP substrate (KPL, 34021); used at room temperature) was added and incubated for 30 min at room temperature. 50 μl of 1N H₂SO₄ was added and absorbance was read at 450 nm.

Assay [1] has as its target T3, human IL-1 beta (PeproTech 200-01B) (human, UniProt P01584 117-269).
T3 construct: As printed it covers only the N-terminal part of the precursor, so it was not used; also called huIL-1 beta; IL1β
The experiment in a line: SPR competition: Fab (from 200 nM, 1:2 dilutions) preincubated with 50 nM IL-1beta, injected over immobilised IL-1bR1 (competitor); without VEGF. The procedure:
As running and dilution buffer, HBS-P+(10 mM HEPES, 150 mM NaCl pH 7.4, 0.05% Surfactant P20) was used.
For assessing VEGF-receptor binding inhibition, a final concentration of 200 nM of R07200394 or 400 nM antibody 0032 was preincubated with 50 nM VEGF121. For assessing IL-1beta-receptor binding inhibition, a final concentration of 200 nM of R07200394 or 200 nM antibody 0032 was with preincubated with 50 nM IL-1beta. Samples were diluted (1:2) in the corresponding 50 nM VEGF121 or IL-1beta solution.
The antibody/ligand mixtures were injected onto the VEGFR2 or IL-1R1 surface for 60 s at a flow rate of 5 μl/min. After a dissociation phase for 60 s, the VEGFR2 surface was regenerated by injecting 5 mM NaOH for 60 s, whereas the IL-1R1 surface was regenerated by injecting 10 mM Glycine pH 3.0 followed by 5 mM NaOH for 60 s each. Bulk refractive index differences were corrected by subtracting blank injections and by subtracting the response obtained from the blank control flow cell. For evaluation, the binding response 5 seconds after inject end was taken. The derived response in RU was transformed to a binding response relative to the initial signal corresponding to the ligand(s) without antibody. IC50 values were calculated using a 4 parameter logistic model (XLfit, ID Business Solutions Ltd.)

The next assay concerns the target T4, VEGF165 (UniProt P15692-4 27-191).
T4 construct: also called VEGF165 (Humanzyme, HZ-1153)
The experiment in a line: competition ELISA: Fab preincubated with VEGF165, free VEGF165 bound to coated rhVEGFR-1-Fc detected; sheet title 'Competition ELISA VEGFR1-Fc, 8 pM VEGF165'. As for the experimental part:
as §1, §2, §3

B1: bispecific anti-VEGF/anti-IL-1beta Fab fragment RO7200394 (Fab, V domains shown)
VH: DEQLVESGGGLVKPGGSLRLSCAAEGMVFKWNDMSWVRQAPGKGLEWVGSISKKGDHKYLNTKFIGRFTISRDNEKDTLYLQMNSLRAEDTAVYYCAKDVGFFDIWGQGTLVTVSS
VL: AIYMHQEPSSLSASVGDRVTITCHGSYWLSSLVAWYQQKPGKAPKLLIYDAKYKHLGVPSRFSGSKEDQEFTLTISSLQPEDFATYYCQQYRYHPYTFGHGTKVEIKR
notes: same variable domains as 1HVL12.85; also called R07200394
B1: in the assay with Human VEGF121-His, binding was put at a Kd of 0.006 nM, the koff was determined as 1.63e-05 s⁻¹, the kon worked out at 2.85e+06 M⁻¹ s⁻¹ and the t½ worked out at 11.8 h. In the assay with human VEGF121, the “IC50 (read off the curve)” value was roughly 0.04 nM. Also, in assay [1], the IC50 was found to be 22 nM. Further, the “IC50 (read off the curve)” value with VEGF165 is roughly 0.09 nM.
